Measurements as given in paper doi:10.1101/2023.08.29.555277.
pKd: −log10 of the molar value.

Assays:
[1] = target: F-actin (polymerised purified rabbit skeletal G-actin) (rabbit) (UniProt P68135); assay: co-sedimentation
[2] = target: microtubules polymerised from porcine Tubulin (porcine) (UniProt P02550); assay: co-sedimentation
Chain of UniProt P02550 (P02550 whole entry, looked up): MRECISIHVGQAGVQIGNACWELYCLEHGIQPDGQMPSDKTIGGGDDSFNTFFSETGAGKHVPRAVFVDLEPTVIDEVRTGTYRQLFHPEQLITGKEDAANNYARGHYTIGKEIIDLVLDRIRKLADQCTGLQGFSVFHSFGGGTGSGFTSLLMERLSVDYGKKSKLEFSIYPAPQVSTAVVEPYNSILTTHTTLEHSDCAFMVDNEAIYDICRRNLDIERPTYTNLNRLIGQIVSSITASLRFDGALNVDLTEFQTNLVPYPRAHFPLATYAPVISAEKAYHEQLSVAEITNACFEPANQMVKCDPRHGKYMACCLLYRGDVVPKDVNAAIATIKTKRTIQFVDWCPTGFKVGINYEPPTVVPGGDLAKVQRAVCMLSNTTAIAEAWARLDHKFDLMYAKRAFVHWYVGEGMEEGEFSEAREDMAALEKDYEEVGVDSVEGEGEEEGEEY

Pellet/Supernatant with F-actin [1]	Substance	other results
1.6	HTT Bridge domain tagged with GST (GST-B: 1887-2098 a.a.) (domain or fragment)	
1.57	HTT fragment containing the Bridge to C_HEAT domains (B-C_HEAT; 1887 to 3144 a.a.) (domain or fragment)	
	endogenous HTT of mouse developing cortex (from UniProt P42859 1-3119) (natural protein)	amount of HTT in the pellet with microtubules [2]: 1.18
	endogenous HTT of mouse developing cortex, P42859 1-3119	amount of HTT in the pellet with F-actin ([1]; remark: other sources report otherwise): 1.07
1.05	purified human full-length (FL) wild-type HTT (23 glutamines) (from UniProt P42858 1-3142) (natural protein)	pKd [1]: 6.45
